Measured values from patent US20250313631A1 (HUMMINGBIRD BIOSCIENCE PTE, published 2025).
One block for each binder: values may come before it.

What was measured:
[1] = target: T1, recombinant mouse VISTA (His-tagged) (mouse, UniProt Q9D659 33-191); experiment: BLI (Octet QK384), His-tagged VISTA on anti-Penta-HIS tips, antibody as analyte
T1 construct: also called murine VISTA; mVISTA
T1 sequence (looked up): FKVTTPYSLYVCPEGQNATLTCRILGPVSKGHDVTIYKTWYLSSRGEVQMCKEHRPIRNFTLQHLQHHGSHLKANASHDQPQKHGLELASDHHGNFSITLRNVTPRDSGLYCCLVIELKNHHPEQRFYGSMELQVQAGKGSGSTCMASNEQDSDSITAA

[2] = target: T2, recombinant cynomolgus macaque VISTA (His-tagged) (cynomolgus macaque, UniProt A0A7N9IB00 33-194); experiment: as above
T2 construct: also called cyno VISTA; cynomolgus monkey VISTA

[3] = target: T3, recombinant human VISTA (His-tagged) (human, UniProt Q9H7M9 33-194); experiment: antigen-binding ELISA; HMBD-002 in F7, day 30 at 40°C
T3 construct: bought soluble protein (Sino Biological); also called hVISTA; human VISTA polypeptide

[4] = target: T2, recombinant cynomolgus macaque VISTA …; experiment: SPR (Biacore), NHP VISTA-HIS captured, antibody as analyte, 1:1 model; SPR (Biacore), NHP (cynomolgus) VISTA
[5] = target: T1, recombinant mouse VISTA (His-tagged); experiment: ELISA, VISTA-HIS protein coated; ELISA, mouse VISTA-HIS
[6] = target: T3, recombinant human VISTA (His-tagged); experiment: antigen-binding ELISA; HMBD-002 in F2, day 20 at 40°C
[7] = target: T3, recombinant human VISTA (His-tagged); experiment: antigen-binding ELISA; HMBD-002 10 mg/mL in F5, day 0
[8] = target: T3, recombinant human VISTA (His-tagged); experiment: antigen-binding ELISA, day 30 at 40°C
human B7H6 [9] = target: T4, human B7H6 (human, UniProt Q68D85 25-262); experiment: ELISA, plate coated with human B7H6, antibody titrated
T4 construct: also called NCR3LG1
T4 sequence (looked up): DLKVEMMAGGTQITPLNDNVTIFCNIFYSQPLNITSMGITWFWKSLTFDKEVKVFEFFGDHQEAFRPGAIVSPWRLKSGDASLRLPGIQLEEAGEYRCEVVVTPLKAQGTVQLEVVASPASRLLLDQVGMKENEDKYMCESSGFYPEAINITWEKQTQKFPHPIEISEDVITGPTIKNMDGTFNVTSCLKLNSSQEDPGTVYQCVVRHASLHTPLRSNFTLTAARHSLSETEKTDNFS

[10] = target: T3, recombinant human VISTA (His-tagged); experiment: antigen-binding ELISA; HMBD-002 in F2, day 10 at 40°C
[11] = target: T3, recombinant human VISTA (His-tagged); experiment: ELISA, plate coated with human VISTA
human B7H3 = target: T5, human B7H3 (human, UniProt Q5ZPR3 29-461, limits assumed); experiment: ELISA, plate coated with the antigen
T5 construct: also called CD276
T5 sequence (looked up): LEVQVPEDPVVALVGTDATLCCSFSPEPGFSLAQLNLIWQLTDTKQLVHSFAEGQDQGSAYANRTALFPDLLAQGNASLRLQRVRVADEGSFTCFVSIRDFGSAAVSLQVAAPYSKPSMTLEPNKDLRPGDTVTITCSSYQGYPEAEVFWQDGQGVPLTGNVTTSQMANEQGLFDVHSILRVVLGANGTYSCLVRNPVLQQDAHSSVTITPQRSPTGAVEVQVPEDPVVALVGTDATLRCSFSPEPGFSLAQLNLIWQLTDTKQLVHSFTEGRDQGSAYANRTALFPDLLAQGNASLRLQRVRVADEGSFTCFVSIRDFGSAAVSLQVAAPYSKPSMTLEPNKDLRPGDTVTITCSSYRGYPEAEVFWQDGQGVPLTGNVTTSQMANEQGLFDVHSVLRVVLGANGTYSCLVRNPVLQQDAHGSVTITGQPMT

human CTLA4 = human CTLA4 (human, UniProt P16410 36-162); experiment: ELISA, plate coated with the antigen
Chain of human CTLA4 (P16410 36-162 limits assumed): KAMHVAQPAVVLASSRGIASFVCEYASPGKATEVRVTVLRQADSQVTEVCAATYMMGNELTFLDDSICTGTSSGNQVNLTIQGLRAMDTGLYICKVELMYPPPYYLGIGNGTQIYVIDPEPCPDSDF

human B7H6 [12] = target: T4, human B7H6; experiment: ELISA, plate coated with the antigen
human B7H4 = target: T6, human B7H4 (human, UniProt Q7Z7D3 25-258, limits assumed); experiment: ELISA, plate coated with the antigen
T6 construct: also called VTCN1
T6 sequence (looked up): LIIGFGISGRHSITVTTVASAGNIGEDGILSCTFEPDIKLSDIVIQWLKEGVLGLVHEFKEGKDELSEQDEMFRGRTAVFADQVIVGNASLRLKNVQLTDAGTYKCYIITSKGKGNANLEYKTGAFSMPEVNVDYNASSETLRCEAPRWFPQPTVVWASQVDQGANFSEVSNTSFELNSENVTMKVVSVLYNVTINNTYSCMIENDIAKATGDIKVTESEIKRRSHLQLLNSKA

human B7H7 = target: T7, human B7H7 (human, UniProt Q9UM44 23-344); experiment: ELISA, plate coated with the antigen
T7 construct: also called HHLA2
T7 sequence (looked up): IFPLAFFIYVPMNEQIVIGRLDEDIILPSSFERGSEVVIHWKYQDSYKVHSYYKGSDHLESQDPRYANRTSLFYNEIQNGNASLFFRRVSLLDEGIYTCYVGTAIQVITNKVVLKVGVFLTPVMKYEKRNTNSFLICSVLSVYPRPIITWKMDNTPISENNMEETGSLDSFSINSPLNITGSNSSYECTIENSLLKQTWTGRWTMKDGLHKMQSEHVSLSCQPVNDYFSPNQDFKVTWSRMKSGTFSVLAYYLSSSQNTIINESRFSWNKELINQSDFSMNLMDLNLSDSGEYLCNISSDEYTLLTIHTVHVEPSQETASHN

human PD-1 = human PD-1 (human, UniProt Q15116 25-167); experiment: ELISA, plate coated with the antigen
Chain of human PD-1 (Q15116 25-167 limits assumed): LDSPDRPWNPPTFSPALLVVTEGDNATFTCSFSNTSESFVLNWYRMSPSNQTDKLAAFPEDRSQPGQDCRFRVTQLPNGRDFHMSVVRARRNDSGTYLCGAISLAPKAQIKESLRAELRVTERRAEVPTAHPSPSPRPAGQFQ

Kd [1]: 113 nM | Kd [2]: < 0.001 nM
B1: anti-VISTA clone 4M2-C12 IgG1 (antibody)
heavy: not shown
light: DIVITQTPAILSTSPGEKVTMTCRASSSVGYIHWYQQKPGSSPKPWIYATSNLASGVPARFSGSGSGTSNSLTITRVEAEDAATYYCQQWSSYPPITFGGGTKLEVKRTVAAPSVFIFPPSDEQLKSGTASVVCLLNNFYPREAKVQWKVDNALQSGNSQESVTEQDSKDSTYSLSSTLTLSKADYEKHKVYACEVTHQGLSSPVTKSFNRGEC
notes: mouse variable regions on human IgG1/kappa constant regions; also called V4; V4pr

EC50 [3]: 0.0217 nM | Kd [4]: 0.367 nM | EC50 [5]: 0.00355 nM | EC50 [6]: 0.0197 nM | EC50 [7]: 0.031 nM | fold increase in affinity [8]: 1.65 fold | binding result (human B7H6 [9]): no binding (tested: about 3e-8 M) | EC50 [10]: 0.0322 nM
B2: V4-C26 hIgG4 (antibody)
heavy: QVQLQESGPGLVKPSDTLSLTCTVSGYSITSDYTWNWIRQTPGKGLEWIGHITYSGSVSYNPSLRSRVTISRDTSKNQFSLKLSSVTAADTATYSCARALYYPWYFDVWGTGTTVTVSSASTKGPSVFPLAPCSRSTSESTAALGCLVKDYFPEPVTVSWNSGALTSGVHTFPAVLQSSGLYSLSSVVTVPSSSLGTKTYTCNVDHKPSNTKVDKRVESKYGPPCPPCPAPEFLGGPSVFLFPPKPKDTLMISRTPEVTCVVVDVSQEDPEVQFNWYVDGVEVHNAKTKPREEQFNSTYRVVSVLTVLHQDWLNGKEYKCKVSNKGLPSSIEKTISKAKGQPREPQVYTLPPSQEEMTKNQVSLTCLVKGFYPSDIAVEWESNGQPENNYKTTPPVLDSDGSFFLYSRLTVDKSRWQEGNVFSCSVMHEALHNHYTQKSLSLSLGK
light: EIVLTQSPATLSLSPGERATLSCRASSSVGYIHWYQQKPGQAPRPIIYTTSNRATGIPARFSGSGSGTDNTLTISSLEPEDSAVYYCQQWSSYPPITFGGGTKLEVKRTVAAPSVFIFPPSDEQLKSGTASVVCLLNNFYPREAKVQWKVDNALQSGNSQESVTEQDSKDSTYSLSSTLTLSKADYEKHKVYACEVTHQGLSSPVTKSFNRGEC
notes: human IgG4 (S228P)/kappa format; also called HMBD-002; HMBD-002-V4C26

EC50 (read off the curve) [11]: ~0.02 nM
B3: anti-VISTA clone V4-C24 IgG1 (antibody, V domains shown)
VH: QVQLQESGPGLVKPSDTLSLTCTVSGYSITSDYTWNWIRQTPGKGLEWIGHITYSGSVSYNPSLRSRVTISRDTSKNQFSLKLSSVTAADTATYSCARALYYPWYFDVWGTGTTVTVSS
VL: EIVLTQSPATLSLSPGERATLSCRASSSVGYIHWYQQKPGQAPRPLIYTTSYRATGIPARFSGSGSGTDNTLTISSLEPEDSAVYYCQQWSSYPPITFGGGTKLEVKR

binding result (human B7H3): no binding (tested: log -7.5 M) | binding result (human CTLA4): no binding (tested: log -7.5 M) | binding result (human B7H6 [12]): no binding (tested: log -7.5 M) | binding result (human B7H4): no binding (tested: log -7.5 M) | binding result (human B7H7): no binding (tested: log -7.5 M) | binding result (human PD-1): no binding (tested: log -7.5 M)
B4: anti-VISTA clone V4-C26 IgG1 (antibody)
heavy: not shown
light: EIVLTQSPATLSLSPGERATLSCRASSSVGYIHWYQQKPGQAPRPIIYTTSNRATGIPARFSGSGSGTDNTLTISSLEPEDSAVYYCQQWSSYPPITFGGGTKLEVKRTVAAPSVFIFPPSDEQLKSGTASVVCLLNNFYPREAKVQWKVDNALQSGNSQESVTEQDSKDSTYSLSSTLTLSKADYEKHKVYACEVTHQGLSSPVTKSFNRGEC
